For data set [1], the target named is T1, Zur (Salmonella enterica sv. Typhimurium …, UniProt A0A0H3NVF0 1-171). Briefly: fluorescence anisotropy; Co(II)-Zur, 1 uM CoCl2; 10 nM probe, 60 mM NaCl, 240 mM KCl, 10 mM HEPES pH 7.0, anaerobic; temperature not stated. The following applies: protein: recombinant; chain copies: 4; label: 5' HEX on strand 1; blunt.
In data set [2] the target is T1, Zur. Briefly: fluorescence anisotropy; Zn(II)4-Zur, 1 uM ZnCl2; 10 nM probe, 60 mM NaCl, 240 mM KCl, 10 mM HEPES pH 7.0, anaerobic; temperature not stated. The following applies: protein: recombinant; chain copies: 4; label: 5' HEX on strand 1; blunt.
The target in data set [3] is T1, Zur. Nature of the data set: fluorescence anisotropy; Zn(II)2-Zur (tightest two exchangeable sites filled); 10 nM probe, 60 mM NaCl, 240 mM KCl, 10 mM HEPES pH 7.0, anaerobic; temperature not stated. The conditions noted are these: protein: recombinant; chain copies: 4; label: 5' HEX on strand 1; blunt.
Data set [4] has as its target T2, ZntR (Salmonella enterica sv. Typhimurium …, UniProt A0A0H3NSQ7 1-141). Nature of the data set: fluorescence anisotropy; apo, 5 mM EDTA; 10 nM probe, 60 mM NaCl, 240 mM KCl, 10 mM HEPES pH 7.0, anaerobic; temperature not stated. The following applies: protein: recombinant; chain copies: 2; label: 5' HEX on strand 1; blunt.
In data set [5] the target is T2, ZntR. Briefly: fluorescence anisotropy; Co(II)-ZntR, 5 uM CoCl2; 10 nM probe, 60 mM NaCl, 240 mM KCl, 10 mM HEPES pH 7.0, anaerobic; temperature not stated. The following applies: protein: recombinant; chain copies: 2; label: 5' HEX on strand 1; blunt.
In data set [6] the target is T2, ZntR. Nature of the data set: fluorescence anisotropy; Zn(II)-ZntR, 1.2 eq ZnCl2; 10 nM probe, 60 mM NaCl, 240 mM KCl, 10 mM HEPES pH 7.0, anaerobic; temperature not stated. The following applies: protein: recombinant; chain copies: 2; label: 5' HEX on strand 1; blunt.

B1: znuAPro (dsDNA)
DNA 1: TAGAATGTTATAATATCACATTTCACACATTCA
DNA 2: TGAATGTGTGAAATGTGATATTATAACATTCTA
Turning to B1, the values for the Kd in the data set with Zur [1], with Zur [2] and with Zur [3] were 31 nM, 54 nM and 41 nM, respectively.

B2: zntAPro (dsDNA)
DNA 1: CTTGACTCTGGAGTCGACTCCAGAGTGTATCCTC
DNA 2: GAGGATACACTCTGGAGTCGACTCCAGAGTCAAG
For B2, the Kd with ZntR [4] stood at 1100 nM; with ZntR [5], 340 nM; in the data set with ZntR [6], 650 nM.

(Values after paper PMC5709419, “Fine control of metal concentrations is necessary for cells to discern zinc from cobalt”.)
